Results as given in paper PMC11077089, “Molecular basis of A. thaliana KEOPS complex in biosynthesizing tRNA t6A”.

How the values were obtained:
Assay in all cases: MST; MST: 20 mM PBS pH 7.5, 300 mM NaCl, 0.05% Tween 20, 25 C, 50 nM RNA; EMSA: 20 mM Tris-HCl pH 7.5, 300 mM NaCl, 5 mM b-mercaptoethanol, 20% glycerol, agarose gel in Tris-glycine pH 8.0 (8.5 for FAM-RNA), 4 C
[1] = target: T1, KAE1;BUD32 K51E;CGI121;PCC1 (Arabidopsis thaliana;Arabidopsis …, UniProt O49653;Q94K14;Q6NMZ4;Q8GWD7 1-353;1-226;1-172;1-96, |K51E||); settings: protein: recombinant;recombinant;recombinant;recombinant; tags: none (6His on partner PCC1);;6His (C-term);6His (C-term); chain copies: 2;2;2;2; label: 5' 6-FAM; tRNA cloverleaf
T1 sequence 1: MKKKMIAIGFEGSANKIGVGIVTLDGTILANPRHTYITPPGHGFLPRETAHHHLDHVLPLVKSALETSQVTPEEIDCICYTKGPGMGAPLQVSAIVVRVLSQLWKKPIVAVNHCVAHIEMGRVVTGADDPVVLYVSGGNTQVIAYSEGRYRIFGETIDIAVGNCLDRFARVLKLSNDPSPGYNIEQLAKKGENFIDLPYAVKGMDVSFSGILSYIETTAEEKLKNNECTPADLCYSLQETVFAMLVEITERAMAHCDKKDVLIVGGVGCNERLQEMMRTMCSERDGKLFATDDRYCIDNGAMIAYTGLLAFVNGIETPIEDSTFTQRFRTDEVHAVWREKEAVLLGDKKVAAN
T1 sequence 2: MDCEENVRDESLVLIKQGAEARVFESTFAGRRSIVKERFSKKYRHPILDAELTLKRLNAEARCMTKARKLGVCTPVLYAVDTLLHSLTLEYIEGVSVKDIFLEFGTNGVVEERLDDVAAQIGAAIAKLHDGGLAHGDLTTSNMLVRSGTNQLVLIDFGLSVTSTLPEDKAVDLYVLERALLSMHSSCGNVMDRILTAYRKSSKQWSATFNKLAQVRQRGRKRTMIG
T1 sequence 3: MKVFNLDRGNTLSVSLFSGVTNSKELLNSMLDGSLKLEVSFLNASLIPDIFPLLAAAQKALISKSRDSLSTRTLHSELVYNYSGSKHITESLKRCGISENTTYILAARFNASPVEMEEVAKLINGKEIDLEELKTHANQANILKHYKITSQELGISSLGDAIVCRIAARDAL
T1 sequence 4: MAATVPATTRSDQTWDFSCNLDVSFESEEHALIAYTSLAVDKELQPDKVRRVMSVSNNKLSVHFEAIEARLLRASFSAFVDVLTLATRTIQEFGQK

[2] = target: T2, KAE1;BUD32 S163R;CGI121;PCC1 (Arabidopsis thaliana;Arabidopsis …, UniProt O49653;Q94K14;Q6NMZ4;Q8GWD7 1-353;1-226;1-172;1-96, |S163R||); settings: protein: recombinant;recombinant;recombinant;recombinant; tags: none (6His on partner PCC1);;6His (C-term);6His (C-term); chain copies: 2;2;2;2; label: 5' 6-FAM; tRNA cloverleaf
T2 sequence 1: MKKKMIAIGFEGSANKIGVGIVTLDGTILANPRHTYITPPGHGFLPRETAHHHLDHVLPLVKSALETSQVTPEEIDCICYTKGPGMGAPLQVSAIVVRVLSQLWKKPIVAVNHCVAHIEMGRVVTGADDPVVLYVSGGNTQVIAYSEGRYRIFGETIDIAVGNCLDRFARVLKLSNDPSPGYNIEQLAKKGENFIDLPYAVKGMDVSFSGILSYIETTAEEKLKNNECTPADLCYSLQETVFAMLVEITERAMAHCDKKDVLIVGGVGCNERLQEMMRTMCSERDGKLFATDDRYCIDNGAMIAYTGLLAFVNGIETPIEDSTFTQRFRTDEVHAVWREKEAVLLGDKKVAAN
T2 sequence 2: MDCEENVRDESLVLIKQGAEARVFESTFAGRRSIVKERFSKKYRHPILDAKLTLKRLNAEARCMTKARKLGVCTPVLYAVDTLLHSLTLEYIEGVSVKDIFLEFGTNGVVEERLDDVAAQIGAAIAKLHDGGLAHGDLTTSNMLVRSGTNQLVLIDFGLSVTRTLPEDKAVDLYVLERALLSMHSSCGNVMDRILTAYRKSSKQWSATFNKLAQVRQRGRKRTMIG
T2 sequence 3: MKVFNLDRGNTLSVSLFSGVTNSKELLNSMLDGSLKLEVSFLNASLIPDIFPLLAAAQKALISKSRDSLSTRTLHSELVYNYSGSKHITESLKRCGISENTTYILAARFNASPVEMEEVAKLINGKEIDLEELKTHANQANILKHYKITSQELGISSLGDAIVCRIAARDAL
T2 sequence 4: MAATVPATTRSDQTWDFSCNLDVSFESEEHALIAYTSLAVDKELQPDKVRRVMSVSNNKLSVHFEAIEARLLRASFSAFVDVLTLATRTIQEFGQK

[3] = target: T3, KAE1 mutant-1;BUD32;CGI121;PCC1 (Arabidopsis thaliana;Arabidopsis …, UniProt O49653;Q94K14;Q6NMZ4;Q8GWD7 1-353;1-226;1-172;1-96, Y36R;I37K;T38R;P39R;P40R;G41W;H42D|||); settings: protein: recombinant;recombinant;recombinant;recombinant; tags: ;none (6His on partner CGI121);6His (C-term);6His (C-term); chain copies: 2;2;2;2; label: 5' 6-FAM; tRNA cloverleaf
T3 sequence 1: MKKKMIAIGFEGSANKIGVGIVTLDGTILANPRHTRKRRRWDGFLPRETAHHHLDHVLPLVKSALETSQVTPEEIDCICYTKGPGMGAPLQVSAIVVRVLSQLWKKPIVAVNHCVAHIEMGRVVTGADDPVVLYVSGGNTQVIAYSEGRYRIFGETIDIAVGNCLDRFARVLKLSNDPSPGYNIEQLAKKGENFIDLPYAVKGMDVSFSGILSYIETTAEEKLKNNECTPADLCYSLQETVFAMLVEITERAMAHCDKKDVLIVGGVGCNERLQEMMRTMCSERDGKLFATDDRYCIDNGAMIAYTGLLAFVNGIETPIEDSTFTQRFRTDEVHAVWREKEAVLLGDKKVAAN
T3 sequence 2: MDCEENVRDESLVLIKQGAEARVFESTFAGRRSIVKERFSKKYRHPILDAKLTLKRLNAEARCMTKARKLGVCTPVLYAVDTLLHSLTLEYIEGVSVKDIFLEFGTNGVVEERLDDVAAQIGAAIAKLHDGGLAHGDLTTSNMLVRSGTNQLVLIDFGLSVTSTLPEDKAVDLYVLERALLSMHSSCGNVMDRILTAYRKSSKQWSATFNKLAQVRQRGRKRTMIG
T3 sequence 3: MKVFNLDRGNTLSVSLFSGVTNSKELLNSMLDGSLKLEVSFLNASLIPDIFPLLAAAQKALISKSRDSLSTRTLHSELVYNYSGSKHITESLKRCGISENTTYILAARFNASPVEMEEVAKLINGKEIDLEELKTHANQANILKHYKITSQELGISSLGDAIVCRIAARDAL
T3 sequence 4: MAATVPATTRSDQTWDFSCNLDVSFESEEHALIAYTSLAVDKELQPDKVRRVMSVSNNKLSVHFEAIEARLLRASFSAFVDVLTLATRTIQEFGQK

[4] = target: T4, KAE1;BUD32 T162R;CGI121;PCC1 (Arabidopsis thaliana;Arabidopsis …, UniProt O49653;Q94K14;Q6NMZ4;Q8GWD7 1-353;1-226;1-172;1-96, |T162R||); settings: protein: recombinant;recombinant;recombinant;recombinant; tags: none (6His on partner PCC1);;6His (C-term);6His (C-term); chain copies: 2;2;2;2; label: 5' 6-FAM; tRNA cloverleaf
T4 sequence 1: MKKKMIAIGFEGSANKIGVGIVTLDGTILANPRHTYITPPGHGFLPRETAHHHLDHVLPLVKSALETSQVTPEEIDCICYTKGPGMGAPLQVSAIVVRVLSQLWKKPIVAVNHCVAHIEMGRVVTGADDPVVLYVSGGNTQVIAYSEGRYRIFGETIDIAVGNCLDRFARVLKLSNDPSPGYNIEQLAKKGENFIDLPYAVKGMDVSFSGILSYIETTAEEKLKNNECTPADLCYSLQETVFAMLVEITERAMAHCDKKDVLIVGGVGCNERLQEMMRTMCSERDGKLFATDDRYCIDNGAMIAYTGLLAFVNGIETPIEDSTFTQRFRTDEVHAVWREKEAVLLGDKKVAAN
T4 sequence 2: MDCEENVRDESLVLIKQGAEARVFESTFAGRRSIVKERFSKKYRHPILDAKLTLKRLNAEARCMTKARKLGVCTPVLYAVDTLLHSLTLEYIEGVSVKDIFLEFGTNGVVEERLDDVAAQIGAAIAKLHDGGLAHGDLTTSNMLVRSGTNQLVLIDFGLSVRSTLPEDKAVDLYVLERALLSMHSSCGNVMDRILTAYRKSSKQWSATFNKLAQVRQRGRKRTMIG
T4 sequence 3: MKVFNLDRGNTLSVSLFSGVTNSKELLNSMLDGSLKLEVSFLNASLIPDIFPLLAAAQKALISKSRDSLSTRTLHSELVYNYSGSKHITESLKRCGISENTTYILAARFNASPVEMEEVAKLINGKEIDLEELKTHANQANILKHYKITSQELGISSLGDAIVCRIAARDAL
T4 sequence 4: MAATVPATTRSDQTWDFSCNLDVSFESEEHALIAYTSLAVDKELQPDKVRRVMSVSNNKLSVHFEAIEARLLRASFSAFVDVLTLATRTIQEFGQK

B1: 5'-6FAM-tRNAArgCCU (structured_RNA)
RNA: GCGCCUGUAGCUCAGUGGAUAGAGCGUCUGUUUCCUAAGCAGAAGGUCGUAGGUUCGACCCCUACCUGGCGCGCCA
B1 gave a Kd [1] of 29.8 ± 10.7 µM, a Kd [2] of 330 ± 11.1 µM and a Kd [3] of 5.27 ± 1.2 µM. It also gave a Kd [4] of 10.5 ± 2.99 µM.
